The supplement of paper PMC10567573

B1: GNAI1 (parent)
chain: WIHCFEGVTAIIFCVALSDYDLVL

Variants of: B1
Assay: protein stability index of a GFP-peptide fusion (GPS, HEK-293T) (PSI 1-6); higher = more stable
Settings: c terminus: a fixed tail appended
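Further: lentivirally expressed fusions sorted by FACS into six bins by GFP to DsRed ratio, PSI derived from sequencing read proportions per bin multiplied by bin number.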

Row | Variant | protein stability index
1 | WIFCFEGVTAIIFCVALSDYDLVL [H3F] | 1.75
2 | WIICFEGVTAIIFCVALSDYDLVL [H3I] | 2.8
3 | WITCFEGVTAIIFCVALSDYDLVL [H3T] | 3.21
4 | WIYCFEGVTAIIFCVALSDYDLVL [H3Y] | 3.39
5 | WIKCFEGVTAIIFCVALSDYDLVL [H3K] | 3.35
6 | WICCFEGVTAIIFCVALSDYDLVL [H3C] | 1.69
7 | WINCFEGVTAIIFCVALSDYDLVL [H3N] | 3.58
8 | WIDCFEGVTAIIFCVALSDYDLVL [H3D] | 3.95
9 | WIECFEGVTAIIFCVALSDYDLVL [H3E] | 3.35
10 | WIVCFEGVTAIIFCVALSDYDLVL [H3V] | 2.98
11 | WFHCFEGVTAIIFCVALSDYDLVL [I2F] | 1.63
12 | WTHCFEGVTAIIFCVALSDYDLVL [I2T] | 2.12
13 | WYHCFEGVTAIIFCVALSDYDLVL [I2Y] | 3.56
14 | WHHCFEGVTAIIFCVALSDYDLVL [I2H] | 2.9
15 | WQHCFEGVTAIIFCVALSDYDLVL [I2Q] | 3.22
16 | WGHCFEGVTAIIFCVALSDYDLVL [I2G] | 1.7
17 | WAHCFEGVTAIIFCVALSDYDLVL [I2A] | 2.9
18 | WRHCFEGVTAIIFCVALSDYDLVL [I2R] | 2.34
19 | WSHCFEGVTAIIFCVALSDYDLVL [I2S] | 2.82
20 | WDHCFEGVTAIIFCVALSDYDLVL [I2D] | 2.21
21 | WEHCFEGVTAIIFCVALSDYDLVL [I2E] | 3.25
22 | WLHCFEGVTAIIFCVALSDYDLVL [I2L] | 1.83
23 | WIHEFEGVTAIIFCVALSDYDLVL [C4E] | 2.83
24 | WIHFFEGVTAIIFCVALSDYDLVL [C4F] | 2.8

Row | Variant | protein stability index
25 | WIHHFEGVTAIIFCVALSDYDLVL [C4H] | 2.22
26 | WIHGFEGVTAIIFCVALSDYDLVL [C4G] | 3.37
27 | WIHWFEGVTAIIFCVALSDYDLVL [C4W] | 4.22
28 | WIHYFEGVTAIIFCVALSDYDLVL [C4Y] | 2.43
29 | WIHRFEGVTAIIFCVALSDYDLVL [C4R] | 2.97
30 | WIHTFEGVTAIIFCVALSDYDLVL [C4T] | 2.39
31 | WIHMFEGVTAIIFCVALSDYDLVL [C4M] | 2.25
32 | WIHKFEGVTAIIFCVALSDYDLVL [C4K] | 3.1
33 | WIHPFEGVTAIIFCVALSDYDLVL [C4P] | 2.69
34 | WIHNFEGVTAIIFCVALSDYDLVL [C4N] | 3.76
35 | WIHQFEGVTAIIFCVALSDYDLVL [C4Q] | 3.17
36 | WIHSFEGVTAIIFCVALSDYDLVL [C4S] | 3.29
37 | WIHCFEGVTQIIFCVALSDYDLVL [A10Q] | 2.09
38 | WIHCFEGVTSIIFCVALSDYDLVL [A10S] | 1.82
39 | WIHCFEGVTFIIFCVALSDYDLVL [A10F] | 2.31
40 | WIHCFEGVTLIIFCVALSDYDLVL [A10L] | 4.17
41 | WIHCFEGVTYIIFCVALSDYDLVL [A10Y] | 2.76
42 | WIHCFEGVTNIIFCVALSDYDLVL [A10N] | 3.19
43 | WIHCFEGVTCIIFCVALSDYDLVL [A10C] | 4.03
44 | WIHCFEGVTGIIFCVALSDYDLVL [A10G] | 2.08
45 | WIHCFEGVTKIIFCVALSDYDLVL [A10K] | 2.31
46 | WIHCFEGVTDIIFCVALSDYDLVL [A10D] | 1.51
47 | WIHCFEGVTWIIFCVALSDYDLVL [A10W] | 2.06
48 | WIHCFEGVTIIIFCVALSDYDLVL [A10I] | 1.8

Row | Variant | protein stability index
49 | WIHCFEGVTTIIFCVALSDYDLVL [A10T] | 2.48
50 | AIHCFEGVTAIIFCVALSDYDLVL [W1A] | 3.11
51 | FIHCFEGVTAIIFCVALSDYDLVL [W1F] | 2.29
52 | LIHCFEGVTAIIFCVALSDYDLVL [W1L] | 3.13
53 | HIHCFEGVTAIIFCVALSDYDLVL [W1H] | 3.09
54 | KIHCFEGVTAIIFCVALSDYDLVL [W1K] | 3.4
55 | YIHCFEGVTAIIFCVALSDYDLVL [W1Y] | 3.22
56 | QIHCFEGVTAIIFCVALSDYDLVL [W1Q] | 1.72
57 | EIHCFEGVTAIIFCVALSDYDLVL [W1E] | 2.82
58 | IIHCFEGVTAIIFCVALSDYDLVL [W1I] | 4.21
59 | SIHCFEGVTAIIFCVALSDYDLVL [W1S] | 1.5
60 | TIHCFEGVTAIIFCVALSDYDLVL [W1T] | 2.32
61 | NIHCFEGVTAIIFCVALSDYDLVL [W1N] | 2.99
62 | VIHCFEGVTAIIFCVALSDYDLVL [W1V] | 3.35
63 | PIHCFEGVTAIIFCVALSDYDLVL [W1P] | 3.51
64 | GIHCFEGVTAIIFCVALSDYDLVL [W1G] | 2.14
65 | MIHCFEGVTAIIFCVALSDYDLVL [W1M] | 2.91
66 | DIHCFEGVTAIIFCVALSDYDLVL [W1D] | 3.44
67 | WIHCDEGVTAIIFCVALSDYDLVL [F5D] | 2.6
68 | WIHCSEGVTAIIFCVALSDYDLVL [F5S] | 2.75
69 | WIHCPEGVTAIIFCVALSDYDLVL [F5P] | 3.42
70 | WIHCCEGVTAIIFCVALSDYDLVL [F5C] | 1.78
71 | WIHCNEGVTAIIFCVALSDYDLVL [F5N] | 2.79
72 | WIHCAEGVTAIIFCVALSDYDLVL [F5A] | 3.47

Row | Variant | protein stability index
73 | WIHCQEGVTAIIFCVALSDYDLVL [F5Q] | 2.79
74 | WIHCTEGVTAIIFCVALSDYDLVL [F5T] | 2.87
75 | WIHCKEGVTAIIFCVALSDYDLVL [F5K] | 2.11
76 | WIHCMEGVTAIIFCVALSDYDLVL [F5M] | 2.91
77 | WIHCIEGVTAIIFCVALSDYDLVL [F5I] | 3.65
78 | WIHCHEGVTAIIFCVALSDYDLVL [F5H] | 3.07
79 | WIHCFEGVTACIFCVALSDYDLVL [I11C] | 3.28
80 | WIHCFEGVTADIFCVALSDYDLVL [I11D] | 3.47
81 | WIHCFEGVTAEIFCVALSDYDLVL [I11E] | 2.67
82 | WIHCFEGVTAAIFCVALSDYDLVL [I11A] | 1.48
83 | WIHCFKGVTAIIFCVALSDYDLVL [E6K] | 1.26
84 | WIHCFIGVTAIIFCVALSDYDLVL [E6I] | 3.12
85 | WIHCFQGVTAIIFCVALSDYDLVL [E6Q] | 1.76
86 | WIHCFTGVTAIIFCVALSDYDLVL [E6T] | 2.2
87 | WIHCFDGVTAIIFCVALSDYDLVL [E6D] | 2.74
88 | WIHCFCGVTAIIFCVALSDYDLVL [E6C] | 1.95
89 | WIHCFAGVTAIIFCVALSDYDLVL [E6A] | 2.75
90 | WIHCFLGVTAIIFCVALSDYDLVL [E6L] | 4.47
91 | WIHCFFGVTAIIFCVALSDYDLVL [E6F] | 1.87
92 | WIHCFGGVTAIIFCVALSDYDLVL [E6G] | 2.32
93 | WIHCFYGVTAIIFCVALSDYDLVL [E6Y] | 2.48
94 | WIHCFNGVTAIIFCVALSDYDLVL [E6N] | 3.63
